{
  "source": "the DeepSol protein solubility set",
  "data": [
    {"assay": "soluble on expression in E. coli; label from the status in PepcDB or PDB records", "values": [
      {"sequence": "MIRIELPTLIAKLNAQSKLALEQAASLCIERQHPEVTLEYYLDVLLDNPLSDVRLVLKQAGLEVDQVKQAIASTYSREQVLDTYPAFSPLLVELLQEAWLLSSTELEQAELRSGAIFLAALTRADRYLSFKLISLFEGINRENLKKHFAMILSDSAETAVAKTDKNAANPLQAAAETPLGRFCTNVTEQARNGELDPVLSRENELNLMVDILCRRRKNNPIVVGEAGVGKSAMIEGLALRVVAGKVPTQLQNVELYSLDLGRLQAGASVKGEFEKRLKGVIDAIKQSPKPIILFIDEAHTLIGSGNQEGGSDAANLLKPALARGELSTVAATTWKEYKKYFEKDPALTRRFQLVKLDEPTIDQAVDILRGLNSVYEKAHNVLITDDALKAAAELSARYISGRQLPDKAIDVLDTACARIAINMTTPPKRLALLETLCHQRQLEIDMLERAQFLGQEVDSERLDVLRNQELADEAEKAALTQSWQQQKSLVESIIALRAELMELSQAQEQDPDHLLVVRTALQEQYQALDAIDHAERLMHPQVDADQIAEVIADWTGVPVDQMNTDELHKITHLTSILGQAIKGQETAIERIHRHLLTARADLRRPGRPKGAFLLVGPSGVGKTETVVQLAEQLYGGKQFLTTINMSEYQEKHTVSRLIGSPPGYVGYGEGGVLTEAIRKMPYSVVLLDEVEKAHPEVLNIFYQGFDKGEIADGEGRVIDCQNIVFFLTSNLGYQTIVDYADEPAKLDEALYPELAAFFKPALLARMEVIPYLPLGKEVLAQIVRGKLARLEKLFKTRYNAEVVIEESLIDEILSRATRSENGARMLEAIIEGQLLPPVSLALLNKLAERAPVERIRLAAEAGEFIGEVA", "soluble on expression in E. coli": "not soluble"},
      {"sequence": "MIRKCTDHGYFRGGSCQQCKRPGRYVLDDGREEKLGRFVSGTLRHFPASAGVKMDKYGWIDLNAFCEVMKKRYNWMRKEYLYALVESDEKGRYQISGPMIRARYGHSVNVDLDYDESDTPYVYYGASPEEVDVLLENGIFPIKQRYVHLSTTYEKAAEVALIHTESPVILQVDAFRAQEDGISLKLATDYIVLAEKIPPDYLFVLEDLEHHHHHH", "soluble on expression in E. coli": "soluble"},
      {"sequence": "MIRLAHADDLLILQEIERAAGQAFRALGMDSIADDEPLSIDELNSYATAGRAWVSVDGLDYPVAYLLADIVDGAGHVEQVSVHPDQAHQGLGRELLHAARVWTRGHGMQRQTLSTFRDVPWNAPYYRRLGFDVLDAGSWGPQLAHLMEHEAELGLTRWPRVAMWRPAVPPK", "soluble on expression in E. coli": "soluble"},
      {"sequence": "MIRTDNLSDLASARDYWRTDKYISFVITFQFYLLLDTMSDSFNWPAGNNEARERLGEKFESLHLDSRISTSHAKPLSNADPVVVPIYHSSTYRFKTVDQFNEDNHGANFVYRRCGNPTTENVEVVINEIEGGAGSLLYNSGLAAISAVFLEFLSSGAHMIVMNPIYSGTSSFINETLARFGVEITSVDVEKEKDFAGAVEKAIRPNTKMIYFESIANPTMAVPDILGTIEVAKKYKILTCLDATFSSPYNIQPLKLGADISLHSCSKYIGGHTDVIAGVVTVSSYDNWKKLKLQQLTTGSSLSPYDAALLTRGLKTLGLRVDRISENAQKTAEFLESHPKVERVFYPGLPSHPQHQYAKQVMKQFAGMIAFDVGTAENAIKLVESLKLIIHAVSLGGTESLIEHPLSMSHGKHLLRYLDGPTVAPGLLRFSVGIENVEDIIGDLNDALEKL", "soluble on expression in E. coli": "not soluble"},
      {"sequence": "MISANRPIINLDLDLLRTFVAVADLNTFAAAAAAVCRTQSAVSQQMQRLEQLVGKELFARHGRNKLLTEHGIQLLGYARKILRFNDEACSSLMFSNLQGVLTIGASDESADTILPFLLNRVSSVYPKLALDVRVKRNAYMAEMLESQEVDLMVTTHRPSAFKALNLRTSPTHWYCAAEYVLQKGEPIPLVLLDDPSPFRDMVLATLNKVDIPWRLAYVASTLPAVRAAVKAGLGVTARPVEMMSPDLRVLSGVDGLPPLPDTEYLLCYDPSSNNELAQVIYQAMESYHNPWQYSPMSAPEGDDSLLIERDIE", "soluble on expression in E. coli": "not soluble"},
      {"sequence": "MISITSAEVGMKINEWHRHIQKFNVTDAEMLKAEIERDIEVMEEDQDLLIYYQLMAFRHKIMLEYTLPSDENRMELSEYLNKIEGHKKKLDNMRAYYYNFFRGMYEFRNGEYTRAITYYKKAERKIPTISDKIEKAEFYFKLSEVYYHMKMTHISMHYAELSYNIYKKHELYSVRRIQCHFVIAGNYDDLENHEKALPHLQEALKGAELLKSKNTHIYATAFFNLGNCYHKMDNLNKAARYIEQALVQYRKINSDVLPQAYHDLALIYFKQGKKGQAMDCFRKGIRSAVDFKDELFMNLFEALDVLYIRNGDTPKLLNIFSRLENGKGYPYLEELALLGGNLFDYNGKIEDSIICFKK", "soluble on expression in E. coli": "not soluble"},
      {"sequence": "MISLEDASLTKKGIVKLSSATDSDSEALAATPKAVKTVMGEVRTKAPLDSPAFTGTPTTPTPPGDAKGLQTTNAEFVRKLIAALVGSVLEPLDTLQELADALGNDPNFATTVLNKLAGKQPLDETLTALSGKSVDGLIEYVGLRETISRAADALQKSQNGGDIPDKDLFVRRIGAARAFDGAVIIGCDDNPWTTAEFIVWLESQGAFNHPYWMCRGSWSYAYNKIITDTGCGNICLAGAVIEVMGVRGAMTIRVTTSHSVSGW", "soluble on expression in E. coli": "not soluble"},
      {"sequence": "MISLPIDLVLPDLREALVNRNEVILEAPPGAGKTTRVPLALLNESWLGDQKILMLEPRRLAARAAAERLASELGEKVGEIVGYRIRLESKVGPRTKIEVVTEGILARRLQDDPALDGVGVVIFDEYHLRNLHSDLALALCLSGRDLLRDDPPLKLLLMSAT", "soluble on expression in E. coli": "not soluble"},
      {"sequence": "MISRHFTVLTALNLQTKIKICIRNFSIRGAMTKVNGNSNGNGISASTDLLDTPSAYTQKSNKTHTSIDLRSDTVTVPSVEMRRAMAEAIVGDDVYGEDTTTNRLEQRCAELFGKEAGLFVTSGTMGNLLAIMAHCQRGEEIIVGRYNHIHRWEQGNYAQFAGISATTLEVKPDGTMDLNDIEQAIRVKGGYVQIKDESCDDLEVTSIPDCHMPASKLICIENTHNYTGGKALPIEWMRSVKQLAERRDLKVHMDGARIYNAAVASNCSVSKIASFADTVQMCFSKGLGAPVGSIVVGPKDFIDRARHSRKALGGGWRQSGILAAAAHIALDHADATIRADHERAKTLARMINDATPEEFRTKVFAAEKDITNMVLVHCQNGVTVQQLTDFFQKHDILAMTFDARRIRMVLNWNVSDENLETIVEVYKKFLKQL", "soluble on expression in E. coli": "not soluble"},
      {"sequence": "MISVNDFRTGLTIAVDNGLWQVLDFQHVKPGKGAAFVRSKLRNLRTGSVQEKTFRAGEKVEKAHIENRRMQYLYASGEAHVFMDNGTYEQIELGEKQIERELKFLKENMEVSIMTYQGEVLGVELPNTVELQVTETEPGIKGDTASNVTKPATLETGLVVQVPIFINEGEMLIINTGEGKYVSRA", "soluble on expression in E. coli": "soluble"},
      {"sequence": "MISVNKVFYAHSERFQMQNMNVHIKAGEVVSLIGPNGSGKSTLLRLMARLLKQSEGDIVLDGKSIHTMKSADVAKQLAMLPQMHDHQLDLTVKELIEFGRGPHKSWRGRLNKEDEEIVDWALSVTNLEGYEYRLLQSLSGGERQRAWIAMTLAQRTNVLLLDEPTTFLDIVHQLEVMELVKRLNEEFGMTIIMVLHDINQAAQYSDRLLVLKRGKLQYDGVPEEVLCHEMFQHIFGIEVDIFQGSEKPFFTPKRISKKGGAKCEQKNVLPLS", "soluble on expression in E. coli": "not soluble"},
      {"sequence": "MITCGQVSSSLAPCIPYVRGGGAVPPACCNGIRNVNNLARTTPDRQAACNCLKQLSASVPGVNPNNAAALPGKCGVSIPYKISASTNCATVK", "soluble on expression in E. coli": "soluble"},
      {"sequence": "MITELTNIHLIKGNLQANSKNEVFAELAQMLLENNRISNKEDFLNDIEIRERLSVTSMDGIAYPHSKSKAVTKPAIAVGVKHEGIEYGDEEGIKPTVFFMIASPDNGADHHIYVLQELFGKFSEEFIEDIHNAKNEHQILNISIQS", "soluble on expression in E. coli": "not soluble"},
      {"sequence": "MITFTANIDGSQANAGTGTGSLGMGVANILFDDLSNEFSWDISWSGLTGNVTAAHFHGPALLNQNAGVQVAISTLSNPTSGSDTINTAQAADLLAGLWYINIHTDTSPSGEIRGQVQVASVPEPGTLSLLLLSMIGVFYSRSKILLEHHHHHH", "soluble on expression in E. coli": "not soluble"},
      {"sequence": "MITLYGFGKCFNVMDASPFVVKVDLFMRMANIPCQVKYGAKYLKKSPKGKLPFINDNGTVVADSDAIITYLTKQYQVTLDAELTPEQKAQAHLITKSLDEGLYWCLVYSRWATDECWPLTNEAFFATLPIPLRWFLPNIIRKSVKKNLHGQGVGRHSLEEILAISDKSLASLSTLLADKNFFFGDTHTSFDAVVYSHLCEFISVRFDNGFESKFTKNAKRYQNLVQFCQRIEDKFYPEKLEHHHHHH", "soluble on expression in E. coli": "soluble"},
      {"sequence": "MIVALGADLVEIARVERLLSRHGERALRRLFHEEEVAYALARQNPFPSLAARLAAKEAFQKCWPESLSWKEVWVGMEGKRPALRFAPRIEARMAEEGLFAHLSLSHERSHALAVVVLEARARGGG", "soluble on expression in E. coli": "soluble"},
      {"sequence": "MIVFYDSWCPMCTAVAEHTKKLDKKGKMKFVSFRNEDVVEKYELSQELQSKMEQRLYIFKNNKWYDGIQSIDVLAKAVPSYWFAVPFIKLSIVLGFGSKVYDYIANNRKLVPVGHCRGGVCEIPTKK", "soluble on expression in E. coli": "not soluble"},
      {"sequence": "MIVGIGIDIIELNRIEKMLDGKLKFMERILTENERNVAKGLKGSRLTEFVAGRFAAKEAYSKAVGTGIGKEVSFLDIEVRNDDRGKPILITSTEHIVHLSISHSKEFAVAQVVLESSSS", "soluble on expression in E. coli": "not soluble"},
      {"sequence": "MIVLIDNYDSFTYNLYQLLGEYEEEIVVVRNDQITIEQLEEMNPKGIVLSPGPGKPEEAGICIEVIRHFYKNVPILGICLGHQAIISAFGGEIVRAERIKHGKTSRAKHNGTSIFSYVTQPLTAMRYHSLVAAQTSLPQCFDILATAMDDGEIMAVRHNYYPLFGLQFHPESIATEEGGKLIRAFLGEVKEEERV", "soluble on expression in E. coli": "not soluble"},
      {"sequence": "MIVRPVTSADLPALIELARSTGTGLTTLPANEQRLQHRVSWAEKAFRGEAERGDADYLFVLEDDAGKVVGISAIAGAVGLREPWYNYRVGLTVSASQELNIHREIPTLFLANDLTGNSELCSLFLHADHRSGLNGKLLSRARFLFIAEFRHLFGDKLIAEMRGMSDEEGRSPFWESLGRHFFKMEFSQADYLTGVGNKAFIAELMPKFPLYTCFLSEEARGVIGRVHPNTEPALAMLKAEGFSYQGYVDIFDAGPAIEAETDKIRAIAESQNLVLAVGTPGDDAEPYLIHNRKREDCRITAAPARAAAGTLVVDPLTAKRLRLSAGASVRAVPLSAQKRG", "soluble on expression in E. coli": "not soluble"},
      {"sequence": "MIVTEHLFAIEDQTECLISALLESDAVQNYKETKKAMYASAEVAQLQKAFLEAKSAFERVEAYGIHAPDFREKQRALRKAKRALDLNEIVANYRFAETNVQTLLDTIGLKIAQLISEDIKVDAGNPFFERGKKHSGCGGSCHAS", "soluble on expression in E. coli": "not soluble"},
      {"sequence": "MIYMSEIIEVIYEDGVLKPLKPLKIKGKKRLKIKIVNDDVEEFLKSMIIKKCKDIDYKKLKEAYYESFLEHHHHHH", "soluble on expression in E. coli": "not soluble"},
      {"sequence": "MIYRFTIISDEVDDFVREIQIDPEATFFDLHEAILKAANYTNDQMTSFFICDDDWEKEKEITLEEMDNNPEMDSWIMKETRLNELIEDEKQKLLYVFDYMTERCFFIELSEIITGKEIKGAKCTKKSGEAPKQTVDFEEMAAGGGSLDLDENFYGDQDFDMEDFDAEGFDVNDGAAGGGSSYDEDKFLEHHHHHH", "soluble on expression in E. coli": "soluble"},
      {"sequence": "MIYSFRNSGFRDPETGVYNQTYFMEVFNREWHRHIREQQSLALLYLCPHIHETVKQPHLLEFFTKQVQEALLRATDLIARLDHNHFALGLFNIDEEGTEVVLKRIGQHIQDFNQEFGKNHKLKIDYKLAACLCLPTQEQKIESMFNNVSKLSQELERSPQQSQALIKLQ", "soluble on expression in E. coli": "not soluble"},
      {"sequence": "MIYSMTAYARKEVKGNWGSAVWEIRSVNQRYLETYFRMPEQFRALEPVLRERFRKRLARGKVECSLRFEANPAAKAELSINEALATQVIKAAEQVMHMTGELSRINPFQVMQWPGVMETPEQNMDEVNKELLAAFDEAISEFIEARGREGDNMKALIEQRLDAITAEVVKVRARMPEILEWQRERLFSKFEDAKIELDASRVEQELILLAQKSDVAEELDRLDSHVKETTNILKKGGAVGRRLDFMMQEFNRESNTLASKSISTDITASGVELKVLIEQMREQIQNIE", "soluble on expression in E. coli": "not soluble"}
    ]}
  ]
}
